pKd: −log10 of the molar value.
Tests used:
[1] = molecular target: REV7^K129A (human) (UniProt Q9UI95); test: ITC; in the context of MBP-SHLD2(1-60) (Supplementary Fig. 5a, b)
[2] = molecular target: MBP-SHLD2(1–60) (human) (UniProt Q86V20); test: ITC; ITC200, 25 °C, 20 mM Tris pH 8.0, 150 mM NaCl, 1% glycerol, 1 mM TCEP; one set of sites model
MBP-SHLD2(1–60) (human), sequence (Q86V20 1-60): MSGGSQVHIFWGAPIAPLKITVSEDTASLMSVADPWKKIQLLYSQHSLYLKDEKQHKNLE

REV7^K129A (human), sequence (Q9UI95 whole entry K129A): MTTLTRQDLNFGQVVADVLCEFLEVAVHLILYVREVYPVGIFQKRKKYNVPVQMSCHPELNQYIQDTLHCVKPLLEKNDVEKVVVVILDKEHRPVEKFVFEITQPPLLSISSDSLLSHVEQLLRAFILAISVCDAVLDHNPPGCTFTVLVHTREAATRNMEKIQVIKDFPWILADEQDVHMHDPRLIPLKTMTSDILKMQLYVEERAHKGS

| Substance | pKd [1] | pKd [2] |
| --- | --- | --- |
| REV7^K129A-SHLD3(1–82) (from UniProt Q9UI95 1-211; Q6ZNX1 1-82) (complex) | 6.39 | – |
| REV7^W171A-SHLD3(1–82) (from UniProt Q9UI95 1-211; Q6ZNX1 1-82) (complex) | – | 7.23 |
| REV7^Y63A-SHLD3(1–82) (from UniProt Q9UI95 1-211; Q6ZNX1 1-82) (complex) | – | 6.22 |

— publication PMC7181697
